Measurements as given in patent US7282356B2, “D-aminoacylase mutants” (Daicel Chemical Industries, Ltd., priority 2002, dated 2007).

Tests used:
[1] = Production of D-tryptophan from N-acetyl-DL-tryptophan using cell-free extract (10 U/mL); type: biochemical; settings: for Yield of D-Trp: 10 U/mL reaction solution, 30° C., 24 hours
Protocol: Wild-type or mutant D-aminoacylase extract can be obtained by, for example, recovering microbial cells by filtration and centrifugation, suspending them in a buffer, and disrupting them using a Bead-Beater (BIOSPEC PRODUCT). Reaction solutions containing 10 U/mL enzyme thus obtained 300 mM Tris-hydrochloride buffer (pH 8.0), and 12%, 15%, 17%, 20% or 22% N-acetyl-DL-tryptophan, are incubated at 30° C. for 24 hours while being shaken. Thus, D-tryptophan can be produced in 80% or higher yield from 12%, 15%, or 17% substrate, or in 50% or higher yield from 20% or 22% substrate.
0.5 ml of a reaction solution containing 5 units of cell-free extract obtained in the step of enzyme purification described in Example 19 or Example 23, 12%, 15%, 17%, 20%, or 22% N-acetyl-DL-tryptophan, and 300 mM Tris-hydrochloride buffer (pH 8.0) was incubated at 30° C. for 24 hours while being stirred. While with the wild type the yield of D-tryptophan was lower than 10% at any substrate concentration, with the mutant 3AD-0089 the yield of D-tryptophan was 80% or higher at substrate concentrations of up to 17%. Furthermore, the mutant was confirmed to enable the production of D-tryptophan in 66% yield in the presence of 20% substrate, or in 58% yield in the presence of 22% substrate.

[2] = Third generation mutants: activity of producing D-tryptophan (TNBS method); type: cell-based, E. coli JM109; settings: 2% N-acetyl-DL-tryptophan, 3.5% N-acetyl-L-tryptophan, 25° C., 30 minutes
Excerpt: (§1) The amino acid substitution in each mutant, and the effect of the amino acid substitution, which was estimated as an activity of producing D-tryptophan in the presence of 5% N-acetyl-DL-tryptophan and 2% N-acetyl-L-tryptophan, are shown in Table 2. The “activity”, as used herein, refers to “a colorimetric value of the reaction solution determined at the end of reaction by the TNBS method (Abs. 420)/the degree of bacterial growth (OD600)”.
Cells of the E. coli transformant obtained in Example 9 were inoculated on an LB agar plate. Each colony grown on the plate was inoculated with a toothpick to a well of a microtiter plate which contained 150 μl of LB culture medium containing 50 μg/ml ampicillin and 0.02 mM IPTG, and then the microtiter plate was covered with Breathable Sealing Membrane (Nalgene). The microtiter plate was incubated at 37° C. for 18 hours while being shaken. 10 μl of the culture medium solution was added to the reaction solution containing 300 mM Tris-hydrochloride buffer (pH 8.0), 0.1% cetylpyridinium bromide, 2% N-acetyl-DL-tryptophan, 3.5% N-acetyl-L-tryptophan, and distilled water in the wells of a microtiter plate. The plate was incubated at 25° C. for 30 minutes while being shaken. Then, D-tryptophan produced from N-acetyl-D-tryptophan was quantified by colorimetry according to the TNBS method using D-tryptophan as standard. […]

[3] = Second generation mutants: activity of producing D-tryptophan (TNBS Abs. 420 / OD600); type: cell-based, E. coli JM109; settings: 5% N-acetyl-DL-tryptophan and 2% N-acetyl-L-tryptophan
Protocol: Three types of the E. coli transformant libraries obtained in Example 11 were inoculated on an LB agar plate. Each colony grown on the plate was inoculated with a toothpick to a well of a microtiter plate which contained 150 μl of LB culture medium containing 50 μg/ml ampicillin and 0.02 mM IPTG, and then the microtiter plate was covered with Breathable Sealing Membrane (Nalgene). The microtiter plate was incubated at 37° C. for 18 hours while being shaken. 10 μl of the culture medium solution was added to the reaction solution containing 300 mM Tris-hydrochloride buffer (pH 8.0), 0.1% cetylpyridinium bromide, 5% N-acetyl-DL-tryptophan, 1% N-acetyl-L-tryptophan, and distilled water in the wells of a microtiter plate. The plate was incubated at 25° C. for 1 hour while being shaken. Then, D-tryptophan produced from N-acetyl-D-tryptophan was quantified by colorimetry according to the TNBS method. […]
as §1

[4] = Reaction of third generation mutants with 7% N-acetyl-DL-tryptophan in microtiter plate; type: cell-based, E. coli HB101; settings: 25° C., 8 hours
Protocol: With a conventional method, recombinant plasmid DNAs were purified from total 10 strains of E. coli JM109 transformant obtained in Example 16. Cells of E. coli HB101 strain were transformed with the recombinant plasmid DNAs to prepare transformants. Each colony grown on a culture plate was inoculated with a toothpick to a well of a microtiter plate which contained 150 μl of LB culture medium containing 50 μg/ml ampicillin and 0.02 mM IPTG, and then the microtiter plate was covered with Breathable Sealing Membrane (Nalgene). The microtiter plate was incubated at 37° C. for 18 hours while being shaken. The reaction was carried out using total 200 μl of a reaction solution containing 100 μl of culture medium solution, 300 mM Tris-hydrochloride buffer (pH 8.0), 7% N-acetyl-DL-tryptophan, and distilled water in each well of a microtiter plate at 25° C. for 8 hours while being shaken. When all of the N-acetyl-D-tryptophan contained in substrate is converted to D-tryptophan, the yield is taken as 100%. While the yield was about 70% with the wild type, the yield was roughly 100% with a third generation mutant obtained in […]. Thus, the competitive inhibition was confirmed to be impaired in the third generation mutants.

B1: wild-type: D-aminoacylase derived from Alcaligenes denitrificans subsp. xylosoxydans MI-4, SEQ ID NO: 1 (protein)
chain: MSQSDSQPFDLLLAGGTLIDGSNTPGRRADLGVRGDRIAAIGDLSDAAAHTRVDVSGLVVAPGFIDSHTHDDNYLLRRRDMTPKISQGVTTVVTGNCGISLAPLAHANPPAPLDLLDEGGSYRFERFADYLDALRATPAAVNAACMVGHSTLRAAVMPDLQRAATDEEIAAMRDLAEEAMASGAIGISTGAFYPPAARATTEEIIEVCRPLSAHGGIYATHMRDEGEHIVAALEETFRIGRELDVPVVISHHKVMGQPNFGRSRETLPLIEAAMARQDVSLDAYPYVAGSTMLKQDRVLLAGRTIITWCKPFPELSGRDLDEVAAERGKSKYDVVPELQPAGAIYFMMDEPDVQRILAFGPTMIGSDGLPHDERPHPRLWGTFPRVLGHYARDLGLFPLETAVWKMTGLTAARFGLAGRGQLQAGYFADLVVFDPATVADTATFEHPTERAAGIHSVYVNGAPVWQEQAFTGQHAGRVLARTAA
modifications: Alcaligenes denitrificans subsp. xylosoxydans MI-4
Yield of D-Trp ([1]; 12% N-Ac-DL-Trp): 9.4% | Yield of D-Trp ([1]; 15% N-Ac-DL-Trp): 3.5% | Yield of D-Trp ([1]; 17% N-Ac-DL-Trp): 1.8% | Yield of D-Trp ([1]; 20% N-Ac-DL-Trp): 0.5% | Yield of D-Trp ([1]; 22% N-Ac-DL-Trp): 0.5% | yield of D-tryptophan ([1]; at any substrate concentration (12% to 22%)): lower than 10% | Activity of producing D-tryptophan [2]: 2.65 | Activity of producing D-tryptophan [3]: 2.58 | yield [4]: about 70%
